Results taken from patent US8822645B2, “Prostaglandin E2 dual variable domain immunoglobulins and uses thereof” (AbbVie Inc., priority 2008, dated 2014).
Positions count from the first letter of the chain named. Values belong to the molecule of their own block, whether it stands above or below them.

Tests used:
[1] = tested on: PGE2 / human EP4 receptor in HEK293 Gα16 cells; experiment: EP4 bioassay (Ca++ flux, neutralization of PGE2); format: cell-based
Experimental: The ability of anti-PGE2 antibodies and anti-PGE2 containing DVD-Ig molecules to inhibit the cellular response of PGE2 was determined in a Ca++ flux assay in HEK293 Gα16 cells stably transfected with human EP4 receptor. Cells were plated in black/clear poly-D-lysine plates, (Corning #3667, Corning, N.Y.) and incubated with Ca++-sensitive dye (Molecular Devices) for 90 minutes. Stock PGE2 (in 200 proof ethanol) was diluted with FLIPR buffer (containing 1×HBSS (Invitrogen, Carlsbad, Calif.), 20 mM HEPES (Invitrogen, Carlsbad, Calif.), 0.1% BSA (Sigma, St. Louis, Mo.) and 2.5 mM Probenecid (Sigma, St. Louis, Mo.)). Anti-PGE2 antibodies, DVD-Ig molecules or isotype matched control antibodies were also pre-diluted in FLIPR buffer. 25 μl of PGE2 or pre-incubated PGE2/antibody mixture or pre-incubated PGE2/DVD-Ig molecule mixture was added to the wells pre-plated with cells. A dose response of PGE2 was done by a serial titration of PGE2 and was determined using FLIPR1 or Tetra (Molecular Devices). EC50 was determined using GraphPad Prism 5 (GraftPad Software, La Jolla, Calif.). […] Ca++ flux was monitored using FLIPR1 and data was analyzed using GraphPad Prism 5.
The ability of anti-PGE2 antibodies and anti-PGE2 containing DVD-Ig molecules to inhibit the cellular response of PGE2 was determined in a Ca++ flux assay using stably transfected human EP4 in HEK293 Gα16 cells. Cells were plated in black/clear Poly-D-Lysine plates, (Corning #3667) and incubated with Ca++-sensitive dye (Molecular Devices) for 90 minutes. Stock PGE2 (in 200 proof ethanol) was diluted with FLIPR buffer (containing 1×HBSS, 20 mM HEPES, 0.1% BSA and 2.5 mM Probenecid). Anti-PGE2 antibodies, DVD-Ig molecules or isotype matched control antibodies were also pre-diluted in FLIPR buffer. 25 μl of PGE2 or pre-incubated PGE2/antibody mixture or pre-incubated PGE2/DVD-Ig molecule mixture was added to the wells pre-plated with cells. A dose response of PGE2 was done by a serial titration of PGE2 and was determined using FLIPR1 or Tetra (Molecular Devices). EC50 was determined using GraphPad Prism 5. […] Ca++ flux was monitored using FLIPR1 and data was analyzed using GraphPad Prism 5.

[2] = tested on: human TNFα transgenic B6.Cg(SJL)-Tg(TNF) N21+ mice; experiment: Human TNFα transgenic induced arthritis model; format: in vivo, mouse; conditions: PGE2 blockade
Experimental: Human TNFα transgenic B6.Cg(SJL)-Tg(TNF) N21+ mice (40 male and 40 females) (Taconic, Hudson, N.Y.) at 4 weeks age were divided into 10 groups of 8 mice (4 male and 4 females/group). Each week, starting from week 5 until week 12 of age the morphology of the rear ankle joints of the mice were evaluated and scored for signs and symptoms of arthritis. Arthritic scores were assigned as follows. • 0=no arthritis (normal appearance and flexion) • 1=mild arthritis (joint distortion) • 2=moderate arthritis (swelling, joint deformation); and • 3=severe arthritis (ankylosis detected on flexion and severely impaired movement)
Animals were randomized to achieve approximately similar mean arthritic score (MAS) for all groups at week 9 at first signs of symptoms. Animals were then treated i.p. twice a week starting from week 10 of age until week 12 of age. Mice in group 1 served as untreated control were administered PBS.

[3] = tested on: C57.BL/6 mice, carrageenan-induced footpad edema; experiment: Carrageenan-induced footpad edema model; format: in vivo, mouse; conditions: 10 mg/kg
Experimental: Carrageenan-Induced Footpad Edema is an acute rodent model of innate immune function. Intradermal (ID) injection of an inflammatory agent causes a rapid influx of neutrophils and fluid edema, which peaks at approximately 4 hours, followed by an influx of macrophages and monocytes, which peaks at approximately 48 hours. C57.BL/6 mice (8-10-week-old, Jackson Laboratories, Bar Harbor, Me.) were injected ID in the rear footpad with 30 μL of either PBS (left) or λ-carrageenen (Sigma Aldrich, St. Louis, Mo.) in PBS (right) at a concentration of 5.0 mg/mL (150 μg/mouse). […] Significant difference for paw thickness was determined by comparing mean paw swelling for each treatment group to vehicle in a Student's two-tailed t-test.
The endpoint measured was the difference in paw swelling (edema) between right and left paws 4 hours after treatment.

[4] = 3H-PGE2 ELISA (PGE2 binding affinity)
Experimental: Alternatively, prostaglandin binding screen for antibodies or DVD-Ig molecules can be determined using a ^3H-PGE2 ELISA. Plates were coated at 50 μl/well with 5 μg/ml of goat anti-human IgG (Fc) (Thermo Scientific #31170, Hudson, N.H.) or goat anti-mouse IgG (Fc) (Thermo Scientific #31125, Hudson, N.H.) in PBS and incubated overnight at 4° C. The following day plates were flicked and blotted dry. Plates were then blocked with 200 μL/well of Superblock (Thermo Scientific #37515, Hudson, N.H.), for 1 hour at room temperature. Plates were flicked and blotted dry. Monoclonal antibodies were diluted to 0.04 μg/ml in PBST (Abbott Bioresearch Center, Worcester, Mass.)/10% Superblock and 50 uL of each antibody or DVD-Ig was added to each well of the pre-blocked ELISA plate at 2 ng/well and incubated for 1 hour at room temperature. Wells were washed 3 times with PBS+0.1% Tween-20. A serial 3 fold titration of ^3H-PGE2 (Perkin Elmer #NET-428, Waltham, Mass.) was prepared in PBST+10% Superblock. Fifty microliters of the ^3H-PGE2 solution was then added to each well of the plate and incubated for 1 hour at room temperature. Wells were washed 6 times with PBST+10% Superblock and 50 μL of scintillation fluid (Perkin Elmer #6013621, Waltham, Mass.) added to each well. Plates were read using the TopCount reader (Perkin Elmer, Waltham, Mass.) with a 5 minutes count delay. EC50 number was determined using GraphPad Prism 5 (GraphPad Software, La Jolla, Calif.).

Dynamic light scattering = format: physicochemical; conditions: 2 mg/mL in PBS
Experimental: Samples were centrifuged at 10,000 RPM for 10 minutes before measured on DynaPro-801 Dynamic light scattering system.

[5] = Size exclusion chromatography, percent monomer of parent antibodies and DVD-Ig constructs; format: physicochemical
Experimental: Antibodies were diluted to 2.5 mg/mL with water and […] is analyzed on a Shimadzu HPLC system using a TSK gel G3000 SWXL column (Tosoh Bioscience, cat#k5539-05k). […] The HPLC system operating conditions are the following: […]

[6] = tested on: stable cell lines overexpressing a cell-surface antigen of interest or human tumor cell lines; experiment: Flow cytometry (FACS) binding to cell surface antigen; format: cell-based; conditions: IL-6R VD in C-terminal position; 2 μg/mL
Experimental: Stable cell lines overexpressing cell-surface antigen of interest or human tumor cell lines were harvested from tissue culture flasks and resuspended in phosphate buffered saline (PBS) containing 5% fetal calf serum (PBS/FCS). Prior to staining, human tumor cells were incubated on ice with human IgG at 200 μg/ml in PBS/FCS. 1-5×10^5 cells were incubated with antibody or DVD-Ig (1-2 μg/mL) in PBS/FCS for 30-60 minutes on ice. […] After 30 minutes incubation on ice, cells were washed twice and resuspended in PBS/FCS. Fluorescence was measured using a Becton Dickinson FACSCalibur (Becton Dickinson, San Jose, Calif.).
Stable cell lines overexpressing a cell-surface antigen of interest or human tumor cell lines were harvested from tissue culture flasks and resuspended in phosphate buffered saline (PBS) containing 5% fetal bovine serum (PBS/FBS). Prior to staining, human tumor cells were incubated on ice with (100 μl) human IgG at 5 μg/ml in PBS/FCS. 1-5×10^5 cells were incubated with antibody or DVD-Ig (2 μg/mL) in PBS/FBS for 30-60 minutes on ice. […] After 30 minutes incubation on ice, cells were washed twice and resuspended in PBS/FBS. Fluorescence was measured using a Becton Dickinson FACSCalibur (Becton Dickinson, San Jose, Calif.).
The geometric mean is the n root of the multiplication product of n fluorescent signals (a1×a2×a3 . . . an). […]

[7] = PGE2-biotinamide ELISA (PGE2 binding); conditions: PGE2 VD in N-terminal position, read-out: Direct Bind ELISA N-terminal VD EC50
Experimental: (§1) Enzyme linked immunosorbent assays to screen for anti-PGE2 antibodies or anti-PGE2 containing DVD-Ig molecules that bind prostaglandin E2 were performed as follows. ELISA plates (Costar 3369, Corning, N.Y.) were coated with 50 μl of anti-host Fc IgG (Sigma, St. Louis, Mo.) at 2 μg/ml in PBS (Invitrogen Carlsbad, Calif.). Following an overnight incubation at 4° C., the plate was blocked with 200 μl Superblock (Pierce #37535, Rockford, Ill.). The IgG or DVD-Ig containing samples were diluted to 1 μg/ml in Assay Buffer (10% Superblock in PBS containing 0.05% Surfactamps (Pierce #37535, Rockford, Ill.) and incubated on the plate at 50 μl/well for 1 hour at room temperature. Following the incubation, plates were washed four times with TTBS (Tween-Tris Buffered Solution). For PGE2 binding, PGE2-biotinamide (Cayman Chemicals, Ann Arbor, Mich.) was diluted to 30 nM and serially diluted in Assay Buffer. The titration curve was added to each IgG or DVD-Ig sample at a volume of 50 μl/well and incubated for 1 hour at room temperature. The plates were washed as previously described and 50 μl/well of 1:5000 dilution of streptavidin polyhrp40 (Fitzgerald Industries, Concord, Mass.) in Assay Buffer was added and incubated for 45 minutes at room temperature. A final wash step was performed and the plates were developed using a single step TMB system (Sigma #T8665, St. Louis, Mo.) and 2N H2SO4. Plates were read at 450 nm on a Molecular Devices Spectramax plate reader (Sunnyvale, Calif.). EC50 was determined using GraphPad Prism 5 (GraphPad Software, La Jolla, Calif.) (FIG. 2).
as §1, with “ELISA” for “Enzyme linked immunosorbent assays to screen for anti-PGE2 antibodies or anti-PGE2 containing DVD-Ig molecules that bind prostaglandin E2 were performed as follows. ELISA”, “(Invitrogen,” for “(Invitrogen”, “IgG” for “IgG or DVD-Ig”, “Solution).” for “Solution). For PGE2 binding,”, “Calif.).” for “Calif.) (FIG. 2).”

Kd [4]: 0.334 nM
B1: 2B5-8.0: murine anti-PGE2 antibody clone, VH SEQ ID 82, VL SEQ ID 83 (antibody, V domains shown)
VH: QVQLQQSGPELVRPGSSVKISCKASGYTFTKYWLGWVKQRPGHGLEWIGDIYPGYDYTHYNEKFKDKATLTVDTSSSTAYMQLSSLTSEDSAIYYCARSDGSSTYWGQGTLVTVSA
VL: DVLMTQTPLSLPVSLGDQASISCTSSQNIVHSNGNTYLEWYLQRPGQSPKLLIYKVSNRFSGVPDRFSGSGSGTVFTLKISRVEAEDLGVYYCFQVSHVPYTFGGGTKLEIKR
IC50 ([1]; EP4 assay): 0.02 nM
effect on disease progression [2]: no significant effect
maximal inhibition of paw swelling ([3]; IP 18 hours prior to carrageenan, 4 hours): 40-50%
% Inhibition ([3]; i.p.): 38 ± 4.6%
Δ Paw Swelling ([3]; i.p., 4 hours post carrageenan): 0.529 ± 0.04 mm

B2: Hu2B5.7: humanized anti-PGE2 antibody, VH SEQ ID 74, VL SEQ ID 75 (antibody, V domains shown)
VH: EVQLVQSGAEVKKPGASVKVSCKASGYTFTKYWLGWVRQAPGQGLEWMGDIYPGYDYTHYNEKFKDRVTLTTDTSTSTAYMELRSLRSDDTAVYYCARSDGSSTYWGQGTLVTVSS
VL: B1 VL with S14T, L15P, D17E, Q18P, R44K, K50Q, V75D, L88V, L109V
hydrodynamic radius (Dynamic light scattering): 5.36 nm

EC50 [7]: 1.52 nM
B3: DVD151: DVD-Ig construct listed in Table 4 (antibody)
VH: EVQLVQSGAEVKKPGASVKVSCKASGYTFTKYWLGWVRQAPGQGLEWMGDIYPGYDYTHYNEKFKDRVTLTTDTSTSTAYMELRSLRSDDTAVYYCARSDGSSTYWGQGTLVTVSSASTKGPEVQLQESGPGLVRPSQTLSLTCTVSGYSITSDHAWSWVRQPPGRGLEWIGYISYSGITTYNPSLKSRVTMLRDTSKNQFSLRLSSVTAADTAVYYCARSLARTTAMDYWGQGSLVTVSS
VL: DVLMTQTPLSLPVTPGEPASISCTSSQNIVHSNGNTYLEWYLQKPGQSPQLLIYKVSNRFSGVPDRFSGSGSGTDFTLKISRVEAEDVGVYYCFQVSHVPYTFGGGTKVEIKRTVAAPDIQMTQSPSSLSASVGDRVTITCRASQDISSYLNWYQQKPGKAPKLLIYYTSRLHSGVPSRFSGSGSGTDFTFTISSLQPEDIATYYCQQGNTLPYTFGQGTKVEIKR
% Monomer (purity) [5]: 92.7%
EC50 ([1]; PGE2 VD in N-terminal position, EP4 bioassay, Ca++ flux, read-out: N-terminal VD PGE2 Neutralization EC50): 0.036 nM
FACS Geometric Mean C-terminal [6]: 0.21
